For series [1], the target named is T1, p53 wild-type (UniProt P04637 1-393). The series can be described thus: EMSA. In general terms: Mobility shift assays separate free from complexed probe on a gel.
Series [2] addresses T1, p53 wild-type. The series can be described thus: filter binding.

Changes are numbered by the printed parent chain.

T1 sequence (P04637 whole entry): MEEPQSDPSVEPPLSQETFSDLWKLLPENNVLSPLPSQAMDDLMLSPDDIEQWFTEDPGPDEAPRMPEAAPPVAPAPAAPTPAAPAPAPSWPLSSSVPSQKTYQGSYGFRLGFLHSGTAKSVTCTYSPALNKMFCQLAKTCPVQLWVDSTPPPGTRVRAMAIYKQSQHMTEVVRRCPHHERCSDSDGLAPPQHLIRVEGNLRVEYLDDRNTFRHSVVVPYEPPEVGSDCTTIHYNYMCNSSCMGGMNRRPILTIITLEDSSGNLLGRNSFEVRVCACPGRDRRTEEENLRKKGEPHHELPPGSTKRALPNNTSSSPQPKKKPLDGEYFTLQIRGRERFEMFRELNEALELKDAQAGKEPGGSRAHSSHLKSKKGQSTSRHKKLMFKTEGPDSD

B1: 66-bp circular wild-type GADD45 (dsDNA)
DNA 1: AGCTGATATCGAATTCTCGAGCAGAACATGTCTAAGCATGCTGGGCTCGAGAATTCCTGCAGCGCT
DNA 2: AGCGCTGCAGGAATTCTCGAGCCCAGCATGCTTAGACATGTTCTGCTCGAGAATTCGATATCAGCT
Consider B1, for which the binding signal with p53 wild-type [1] was 1 fold (reference).

B2: 66-bp circular mutant GADD45 (dsDNA)
DNA 1: B1 DNA 1 with C27A, G30T, C37A, G40T
DNA 2: B1 DNA 2 with C27A, G30T, C37A, G40T
On to B2, for which the binding signal with p53 wild-type [1] was 1 fold (reference).

B3: p21 site 32-mer (dsDNA)
DNA 1: TAGAGCGAACATGTCCCAACATGTTGGCGTCG
DNA 2: CGACGCCAACATGTTGGGACATGTTCGCTCTA
With B3, the binding signal in the series with p53 wild-type [2] is 1 fold (reference).

The record behind these values is paper PMC2898518.
